According to the DeepSol protein solubility set:

Assay: soluble on expression in E. coli; label from the status in PepcDB or PDB records

Row | Sequence | soluble on expression in E. coli
1 | MGSDKIHHHHHHMSKLAAFLGRAIPTHQQKQSSHLGDRTLYVGASDIAGCPRKAALGKQNPTGHDIKTLLRFSRGHAAQAMYADFFRTGGALFEEEVEVRHPAIPEIRCHIDFLFYANRQTKRLHIVEMKSTDGIPDEPYASWVDQLHVQMGLLQLTLDPAVEIGGSILVVDLNAGSYHEFNSYTPNRLVFDQLVEKGKHILAAARGECAPRTEPGILCGYCPFRTGCPSHAVALDLPREILDTGRKYLELNEQKKALENRLDVLKNDILTFADGTFKGASDGILINVTSVADSTTIDSYKLKRNYPDIYDQVTKPKSGYVKLEIKPFTPLAAQAA | not soluble
2 | MKRIVVKVGSHVISEENTLSFERLKNLVAFLAKLMEKYEVILVTSAAISAGHTKLDIDRKNLINKQVLAAIGQPFLISVYNELLAKFNKLGGQILLTGKDFDSRKATKHAKNAIDMMINLGILPIINENDATAIEEIVFGDNDSLSAYATHFFDADLLVILSDIDGFYDKNPSEFSDAKRLEKITHIKEEWLQATIKTGSEHGTGGIVTKLKAAKFLLEHNKKMFLASGFDLSVAKTFLLEDKQIGGTLFE | soluble
3 | MAELEKTFALIKPDAVRAGKAQEIMQLIELNGFTIIAKQKLQLTRARAEEFYGEHKGKEFFPKLVNFMTSGPIWALVLAKPGAILAWRALMGPTNVFKARAEQPKCLRALYGTDGTQNATHGSDSPISAAREIKFFFPTLSGDPTIYAEPTAAAEYITKRIQPALAKALAALAREKPSADKFEAITFVAGYLLQNNPNKPKVLMPDEWDPALMGDDEDDEADFINARLAAPTGNDGATKAEFDAMVEAAKADTGGAAPAQEFVYPDSKPTTPVVPAPPAPGSKPPSASGARPQSARPTSARPPSASAAPPAPLAPVPPPASSSRPASGSGRPPSATARPPSATPPPPPPAVELEEADDPAQLDEAATKVQAAFRGYQARKEVAVMRSEAQPGEAAAEPEQEAELQPEAEPEPQPEGEQEPQPQASASSSFLPDGVTEEMAAEAATRVQAHMRGHLARKQVAAIKAQQAAPAVAESSEALAEPEPQPEAEAEPQPQASVSSSFLPDGVTEEMAAEAATLVQAHMRGHLARKQVAAIKAQQAAPAVAESSEAQAEAEQTEAEAEPQPDAEAEAGAAEGEAEPEPEAAE | not soluble
4 | MNSIQIADETYVAADAARVSAAVADRCSWRRWWPDLRLQVTEDRADKGIRWTVTGALTGTMEIWLEPSMDGVLLHYFLHAEPTGVAAWQLARMNLARMTHHRRVAGKKMAFEVKTVLERSRPIGVSPVT | not soluble
5 | DIVMTQTPKFLLVSAGDKVTITCKASQSVSNDLTWYQQKPGQSPKLLIYYASNRYTGVPDRFTGSGYGTDFTFTISTVQAEDLAVYFCQQDYGSPPTFGGGTKVEIKRTVAAPSVFIFPPSDEQLKSGTASVVCLLNNFYPREAKVQWKVDNALQSGNSQESVTEQDSKDSTYSLSSTLTLSKADYEKHKVYACEVTHQGLSSPVTKSFNRGEC | soluble
6 | MSSEEQDVKIVTSDDVEFIVSPKIANQSKLLADFVVLNQREPIPLKNVTSEIFKKVIEWCEYHAEDIPKPPDNVEEKRTDDIGEWDVEFLKVDKGTLFELVLAATYLDIKGLFNVTCKSIANSIKGKSPEEIRAVFNLGNETNME | not soluble
7 | MAHHHHHHMDVKEYTHNIIDIDISNHIKIRSSNNYNNKKLKETIRQNAKKIRDITFKYWIKEKQLQSGNFVINDENINDKMIIENKKDIINNINNDKKISYSYVDSFQTCVTNSKDEEGVLYIDDLYTYLIRQLYILFCSLEVRKKKNNVQFDFTRIYKYTYNYKKLESHISYEYLKKYDINDDIIKNDIENFHFYAYDHNIEDPKKYCDMEENYNNANYNICIYLPTKKEIDILFIIDQLYDYFYFVLYVPITTKEKDLIFFPFNIKNNLLVQYHFNIFIPYDYIYYTTYKKMNNFILNYSKIVKNYELSNSLYKHNDTIILIPLIAYNKLGYRIGSGKGYYDKTLTKTRKKNDIIKQIKNIQMNDNIITNNKDHDIQKENHLYLGTKNDTNNIICSNVKNIKHKTFNNEIEIYTQNKQKIYFNEIKIGVSFEMFLYDIDFSETTDLILDYMINENNIYHFIL | not soluble
8 | SAMNGFERELQSRVLSVIPHGELEGVNGPLQNYTKTMNQALQHEHVVAAAPYVRFTGLAEKGSKLKAIEVRGVDPAYEQAVSSMSDFIDPEAWQNFYSGQQQVILGRGVANELKVQVGDYVTLMIPQTGGTNKVQAPKRVRVKVAGFLTLNGQIDHSLALVPLADAQQYVRLGDGVTGISLKTDDVLDAPSIVREVGNLVNVYVYLKSWQQQFGFLYRDIQLVRT | soluble
9 | GMLAETDEYMAGGKRPARVYRVVNGIAVLPVTGTLVHRLGGMRPFSGMTGYDGIVACLQQAMADSQVRGILLDIDSPGGQAAGAFDCADMIYRLRQQKPVWALCNDTACSAAMLLASACSRRLVTQTSRIGSIGVMMSHVSYAGHLAQAGVDITLIYAGAHKVDGNQFEALPAEVRQDMQQRIDAARRMFAEKVAMYTGLSVDAVTGTEAAVFEGQSGIEAGLADELINASD | not soluble
10 | MKRKTKIVSTIGPASESVDKLVQLMEAGMNVARLNFSHGDHEEHGRRIANIREAAKRTGRTVAILLDTKGPEIRTHNMENGAIELKEGSKLVISMSEVLGTPEKISVTYPSLIDDVSVGAKILLDDGLISLEVNAVDKQAGEIVTTVLNGGVLKNKKGVNVPGVKVNLPGITEKDRADILFGIRQGIDFIAASFVRRASDVLEIRELLEAHDALHIQIIAKIENEEGVANIDEILEAADGLMVARGDLGVEIPAEEVPLIQKLLIKKSNMLGKPVITATQMLDSMQRNPRPTRAEASDVANAIFDGTDAVMLSGETAAGQYPVEAVKTMHQIALRTEQALEHRDILSQRTKESQTTITDAIGQSVAHTALNLDVAAIVTPTVSGKTPQMVAKYRPKAPIIAVTSNEAVSRRLALVWGVYTKEAPHVNTTDEMLDVAVDAAVRSGLVKHGDLVVITAGVPVGETGSTNLMKVHVISDLLAKGQGIGRKSAFGKAVVAKTAEEARQKMVDGGILVTVSTDADMMPAIEKAAAIITEEGGLTSHAAVVGLSLGIPVIVGVENATTLFKDGQEITVDGGFGAVYRGHASVL | soluble
11 | MGSDKIHHHHHHMALWQAKQVCPEIIFVPPRMDLYLRFSQMAREIYSEYTDKIEPYGIDEAWLDVSDSGNLKGSGMTIAREISHRIKYELGVTVSIGISWNKIYAKLGSDYKKPDAITEFNRENYKDRIWQLPASDLLYVGRQTNKKLQKLGIRTIGQLAESDEKLLESHFGKIGNVLWAFANGWDEDPVCKEGYEAPVKSIGNSTTTPRDLENDLDVWIIQIALAESVAARLRKHGFKCKTVEITVRDNGLYSFSRQIHLRQPTNITNEIVTAAFQLFKDNYKWEHPIRSLGIRAADLVLDDIPVQLDLFGNQEKKEKLEKLDRTVDEIRRRFGYFSIQRAAMYQDKVLSHLDAGTHTVHPHSYFHG | not soluble
12 | MSLSLSLEVLERLVAFETVSDRPNLDMIAYVEDFLRTRGFRVHRIADPEEAKAGLFAEIGPSVDGGLLLSAHSDVVPVEGQSWCVPPFKLTRQGDKLYGRGTTDMKGFLAEMLALADVVHRRDLHAPLKLLISYDEEIGCVGISRMKDRLRPLLGRPELAIVGEPTEMQVAISHKGKRSYRADFRGEAGHSALAPRFVNALHLAVDFVTKLRQMQDEFRQDGNFNGDYDVPYTTLHVGQLHGGEALNLVPDKATLLFEFRHLAEDDPEVIEARIQQAADAVKGNYADVAHISLDALAGYPGLSVAVSEPLVSRVRSWCDGNISHVAFGTEAGVLSELGIQTVVCGPGSMAEQGHKPDEFISEHQLAACSNMLRKGAEEMLYCAEGHHHHHH | soluble
13 | MGSDKIHHHHHHMISTANLTIQFGPKPLFENVSVKFGEGNRYGLIGANGSGKSTFMKIIGGDLEPSAGNVSLEPGVRLGKLRQDQFAFEEVRVLDVVMMGHTEMWAAMSERDAIYANPEATEDDYMRAADLEAKFAEYDGYTAEARAGELLLGLEIAVDQHNLLMREIAPGWKLRVLLAQALFSNPDVLLLDEPTNNLDINTIRWLENVLNGYQSTMIIISHDRHFLNQVCTHMADVDYGEIRVYPGNYDDYMLASTQARERLTANNAKAKERIVELQDFVRRFAANKSKSRQATSRLKQIDRIKADQVEVKPSSRQNPYIRFEQNKVMHRLAVTIEKLSKSYDQPVIRDFSAMVDAGEKVAIIGANGVGKTTLLRMLATDLAPDSGTVKWSENADIGYMAQDVSDQFQQGDINLFDWMAEHRQPGDDDQSIRSALGRLLFSGDDLPKAPKVLSGGEKNRMTFGRLMLGRHNVMLLDEPTNHLDMESIESLQFALEKYEGALIFVSHDREFVSGLATRIIEILPDGELVDYRGGYEDYLASRGIEA | not soluble
14 | MGSDKIHHHHHHMEANSIDVNSILANKNLIIKFQPVVSVIKKSVIGLEAVCLGSSDDNGGIISTSKLFKTAEEQGVLIELDRLYREKAVKEFVKVYKRNKELLLFLDINISIIDKYVGSGIIMNLISDSGISTNNVVLQIIEGKMTNLEALKKFIYLYRSNGFLVALKDLGTGFANMDKISYVEPDIIKINSVLTKGIEVDYYRQEVFRSLVNLSKKIGALVVCEDIASEQETMMIMELGADMLEGSYFENDFDLGEKFLDASRKLIDATAVKYEKYTEEEVKAKEMIYSGYDFVINEALKELSSLTEDKFDDSINTVINKNSKLECVYVLNKEGIQVGSTATRFTDMVPQRALIFEPAQKGTNHSLKKYYYFLKTMSLNKYVTEPYISLATGNLCITISAVFKNLEGKEYILCVDFNPNYMSM | not soluble
15 | MGSDKIHHHHHHMAVLVTRPDERGQQLVDMLAKAGVVAIHLPLFRIESGAELNELPNKFAKLKNGDYVFAVSKSAVDFAFKTLTATGFVWRHDLHYFTVGQGTAQYFTATTEMPVHYPTAQENSEGLLQLNAMQDLSDKTVLILRGNGGRELFAEQAQQRGANVEIVECYRREPIVYNNAEQTSICKRAGIQTIVVTSAEILTQLVDFVPQNEHNWLKSCQLITVSERIAHLAEALGWQNVVISPRADNQTLLQTLLQCR | not soluble
16 | GSPNSTAEPTVAARPQQIDALRTLIRLGSLHTPMVVRTAATLRLVDHILAGARTVKALAARTDTRPEALLRLIRHLVAIGLLEEDAPGEFVPTEVGELLADDHPAAQRAWHDLTQAVARADISFTRLPDAIRTGRPTYESIYGKPFYEDLAGRPDLRASFDSLLACDQDVAFDAPAAAYDWTNVRHVLDVGGGKGGFAAAIARRAPHVSATVLEMAGTVDTARSYLKDEGLSDRVDVVEGDFFEPLPRKADAIILSFVLLNWPDHDAVRILTRCAEALEPGGRILIHERDDLHENSFNEQFTELDLRMLVFLGGALRTREKWDGLAASAGLVVEEVRQLPSPTIPYDLSLLVLAPAATGA | soluble
17 | MWQPATERLQVTYLGKVSTTGMQFLSGCTEKPVIELWKKHTLAREDVFPANALLEIRPFQVWLHHLDHKGEATVHMDTFQVARIAYCTADHNVSPNIFAWVYREINDDLSYQMDCHAVECESKLEAKKLAHAMMEAFRKTFHSMKSDGRIHSNSSSEEVSQELESDDG | soluble
18 | MTQLPPAIFLMGPTAAGKTDLAIELTKVLPCELISVDSALVYRGMDIGTAKPSRELLAQFPHRLIDILDPAESYSAADFRTDALAAMADITARGKIPLLVGGTMLYYKALLEGLADMPAADPQVRAELEEEAARLGWQALHDQLAAVDPESAARIHPNDPQRLTRALEVYRVSGLTMTAHRQRQLAQSTEAGASGRSQLPYTVANLAIAPANRQVLHQRIAQRFTQMLEQGFIDEVVALRSRSDLHAGLPSIRAVGYRQVWDHLDGKLTSAEMQERGIIATRQLAKRQFTWLRSWADLQWLDSLDCDNLPRALKYLGTISILSLEHHHHHH | not soluble
19 | MALSKIDTEIEQVDQEKYLRQATSYYQPLEKPLKYGPEVNSLSDLVAALHREFESNYVNIEMVNHLMLSYKSNPREWRKYAKFDRYTYTRNLVDAGNGKFNLLILCWGEGHGSSVHDHADSHCFMKMLKGDLREKRYEYPNRSARDNGRSHHPDGEIDSRELVEIGETPIAVNDVAYINDNLGLHRVENPSHSDTSVSLHLYCPPFDTCSVFQDNLKKTTAKVTFWSKYGVRTKQNEQLEHHHHHH | not soluble
